Article PMC3041725

What was measured:
[1] = molecular target: VN-Exd fusion protein, expressed in Drosophila embryos (Drosophila melanogaster) (UniProt P40427); assay: split reporter (BiFC, NanoBiT); competition against split Venus BiFC in living Drosophila embryos: an unfused ('cold') protein co-expressed with the two fusion proteins
[2] = molecular target: VC-Exd fusion protein, expressed in Drosophila embryos (Drosophila melanogaster) (UniProt P40427); assay: split reporter (BiFC, NanoBiT); split Venus (VN 1-173, VC 155-238) BiFC in living Drosophila embryos; fusion proteins expressed by UAS/Gal4 (abdA-Gal4, en-Gal4, btl-Gal4 and others); embryos kept at 4°C for 28 h before confocal imaging
Sequence of VC-Exd fusion protein, expressed in Drosophila embryos (Drosophila melanogaster) (P40427 whole entry, the tested form may be a part): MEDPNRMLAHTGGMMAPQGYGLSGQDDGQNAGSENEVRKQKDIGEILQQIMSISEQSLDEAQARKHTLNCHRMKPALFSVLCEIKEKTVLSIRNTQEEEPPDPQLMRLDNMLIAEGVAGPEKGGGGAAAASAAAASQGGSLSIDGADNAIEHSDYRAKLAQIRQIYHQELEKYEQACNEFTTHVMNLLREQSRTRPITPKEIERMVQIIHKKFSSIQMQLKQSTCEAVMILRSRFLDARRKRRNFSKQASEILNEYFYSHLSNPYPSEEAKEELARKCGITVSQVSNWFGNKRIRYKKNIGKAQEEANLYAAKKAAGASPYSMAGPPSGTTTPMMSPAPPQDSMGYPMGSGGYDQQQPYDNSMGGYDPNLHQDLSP

Sequence of VN-Exd fusion protein, expressed in Drosophila embryos (Drosophila melanogaster) (P40427 whole entry, the tested form may be a part): as above
Sequence of VN-AbdA fusion protein, expressed in Drosophila embryos, P29555 1-590 (natural protein; other documents disagree on this pair) (P29555 whole entry, the tested form may be a part): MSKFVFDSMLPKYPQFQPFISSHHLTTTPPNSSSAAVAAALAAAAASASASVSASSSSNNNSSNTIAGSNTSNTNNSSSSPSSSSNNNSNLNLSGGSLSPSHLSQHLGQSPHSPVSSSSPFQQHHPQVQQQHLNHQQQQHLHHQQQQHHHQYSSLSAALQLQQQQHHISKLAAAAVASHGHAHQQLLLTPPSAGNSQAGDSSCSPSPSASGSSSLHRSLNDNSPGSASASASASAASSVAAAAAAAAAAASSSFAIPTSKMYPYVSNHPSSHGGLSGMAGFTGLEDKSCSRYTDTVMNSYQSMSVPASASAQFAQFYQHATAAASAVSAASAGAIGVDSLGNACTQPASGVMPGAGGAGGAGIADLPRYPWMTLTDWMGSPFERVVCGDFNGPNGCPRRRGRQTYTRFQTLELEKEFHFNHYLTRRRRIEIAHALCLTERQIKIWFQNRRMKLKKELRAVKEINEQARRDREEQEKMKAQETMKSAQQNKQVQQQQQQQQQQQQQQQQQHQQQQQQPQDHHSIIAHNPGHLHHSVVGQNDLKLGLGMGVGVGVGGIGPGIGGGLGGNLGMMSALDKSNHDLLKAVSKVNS
Sequence of AbdominalA (AbdA), unfused parental wild type protein, expressed in Drosophila embryos, P29555 1-590 (natural protein; other documents disagree on this pair) (P29555 whole entry, the tested form may be a part): as above

Row | Substance | percent loss of BiFC between VC-AbdA and VN-Exd [1] [%] | fold weaker BiFC signal than VC-AbdA/VN-Exd [2] [fold]
1 | AbdominalA (AbdA), unfused parental wild type protein, expressed in Drosophila embryos, P29555 1-590 (natural protein; other documents disagree on this pair) | 80 | –
2 | VN-AbdA fusion protein, expressed in Drosophila embryos, P29555 1-590 (natural protein; other documents disagree on this pair) | – | 5
